Test results published in FireProtDB (doi:10.1002/prot.1147).
Where “and” joins values, the source holds several entries; their conditions need not be identical. Equal entries are not always repeated.

B1: Lysozyme C, P61626 (parent)
chain: MKALIVLGLVLLSVTVQGKVFERCELARTLKRLGMDGYRGISLANWMCLAKWESGYNTRATNYNAGDRSTDYGIFQINSRYWCNDGKTPGAVNACHLSCSALLQDNIADAVACAKRVVRDPQGIRAWVAWRNRCQNRDVRQYVQGCGV

Variants of: B1
Conditions: Homo sapiens, Thermal, DSC, Gly-HCl 0.05 M, reversible: yes, structure 1LZ1, whole UniProt chain shown

Variant	Tm (pH 2.67) [°C]	unfolding enthalpy (calorimetric) (pH 2.67) [kcal/mol]	ddG of mutation (higher = less stable) (pH 2.7, 64.9 °C) [kcal/mol]	heat capacity change of unfolding (pH 2.7, 64.9 °C) [kcal/mol/K]	Tm (pH 2.7) [°C]	change of melting temperature, mutant - wild type (higher = more stable) (pH 2.7) [°C]	heat capacity change of unfolding (pH 2.7) [kcal/mol/K]	unfolding enthalpy (calorimetric) (pH 2.7)	Tm (pH 2.79) [°C]	unfolding enthalpy (calorimetric) (pH 2.79) [kcal/mol]	Tm (pH 2.8) [°C]	unfolding enthalpy (calorimetric) (pH 2.8) [kcal/mol]	Tm (pH 2.6) [°C]	unfolding enthalpy (calorimetric) (pH 2.6) [kcal/mol]	Tm (pH 2.72) [°C]	unfolding enthalpy (calorimetric) (pH 2.72) [kcal/mol]	Tm (pH 3) [°C]	unfolding enthalpy (calorimetric) (pH 3) [kcal/mol]
G147A	64.9	99.7	-0.14	1.29	65.4	0.5	1.29	99.7 kcal/mol	67.1	102	67.2	103	–	–	–	–	–	–
G86A	–	–	0.12	1.65	64.5	-0.4	1.65	108 kcal/mol	–	–	–	–	62.8	103	64.9	109	69.2	114
G40A	–	–	–	–	57.7	-7.2	–	77 kcal/mol and 88.4 kcal/mol	–	–	–	–	–	–	–	–	–	–
G34A	–	–	1.39	1.58	60.3	-4.6	–	96.3 kcal/mol and 103 kcal/mol	–	–	–	–	–	–	–	–	–	–
G37A	–	–	1.77	1.58	59.4	-5.5	–	102 kcal/mol and 111 kcal/mol	–	–	–	–	–	–	–	–	–	–
